The record followed here is paper PMC4186791.

Where only a bound is given, the exact number is not on record here.

Assay in all cases: two-hybrid; LexA-Ubx variant (pLexA) and B42-partner (pB42) co-transformed into S. cerevisiae EGY48 carrying p8op-LacZ; blue/white colonies on X-gal and liquid β-galactosidase (ONPG) assay after galactose induction at 30°C, reported in Miller units
The target of experiment [1] is UbxIVa Pro4 (Drosophila melanogaster).
Experiment [2] deals with UbxIb N103 Pro4 (Drosophila melanogaster) (UniProt P83949).
Sequence of UbxIb N103 Pro4 (Drosophila melanogaster) (P83949 other isoform, or with tags, fused parts or gaps amino acids 2–102 removed (N103) | A226P | Q233P): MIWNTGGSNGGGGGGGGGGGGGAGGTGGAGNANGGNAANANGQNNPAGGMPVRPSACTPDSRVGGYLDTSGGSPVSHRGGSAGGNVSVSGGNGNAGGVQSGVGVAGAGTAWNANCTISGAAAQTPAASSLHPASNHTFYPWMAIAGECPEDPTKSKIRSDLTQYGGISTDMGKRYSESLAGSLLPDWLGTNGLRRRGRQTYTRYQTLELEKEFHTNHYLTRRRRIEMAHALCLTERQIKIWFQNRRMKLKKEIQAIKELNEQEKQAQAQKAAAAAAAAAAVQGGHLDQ
For experiment [3], the target named is UbxIb Δ103–216 (Drosophila melanogaster) (UniProt P83949).
Sequence of UbxIb Δ103–216 (Drosophila melanogaster) (P83949 other isoform, or with tags, fused parts or gaps mutant): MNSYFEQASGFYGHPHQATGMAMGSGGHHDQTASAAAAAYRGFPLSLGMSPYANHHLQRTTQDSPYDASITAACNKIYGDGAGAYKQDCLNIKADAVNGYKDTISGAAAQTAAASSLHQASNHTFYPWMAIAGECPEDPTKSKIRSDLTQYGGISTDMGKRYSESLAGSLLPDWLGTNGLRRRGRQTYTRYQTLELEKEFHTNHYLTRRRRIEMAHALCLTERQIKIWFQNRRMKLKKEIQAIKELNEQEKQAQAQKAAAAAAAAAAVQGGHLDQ

Sequence of Dishevelled (P51140 whole entry): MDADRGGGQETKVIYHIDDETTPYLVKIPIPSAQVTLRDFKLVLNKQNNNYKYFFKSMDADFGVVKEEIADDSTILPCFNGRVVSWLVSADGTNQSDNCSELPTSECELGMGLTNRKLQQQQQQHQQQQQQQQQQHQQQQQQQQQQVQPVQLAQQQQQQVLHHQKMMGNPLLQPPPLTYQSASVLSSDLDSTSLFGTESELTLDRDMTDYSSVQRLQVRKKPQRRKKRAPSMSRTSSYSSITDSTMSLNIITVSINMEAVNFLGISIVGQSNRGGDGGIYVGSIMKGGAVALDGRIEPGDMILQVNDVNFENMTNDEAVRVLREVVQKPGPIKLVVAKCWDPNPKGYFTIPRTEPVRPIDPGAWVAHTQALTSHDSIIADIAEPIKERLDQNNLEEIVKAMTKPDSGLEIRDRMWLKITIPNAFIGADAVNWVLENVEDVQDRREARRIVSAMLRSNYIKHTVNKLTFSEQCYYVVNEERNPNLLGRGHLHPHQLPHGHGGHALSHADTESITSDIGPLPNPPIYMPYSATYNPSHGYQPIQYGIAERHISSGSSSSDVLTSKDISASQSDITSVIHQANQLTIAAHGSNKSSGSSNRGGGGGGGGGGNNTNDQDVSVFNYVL
Sequence of 14-3-3ε (P92177 whole entry): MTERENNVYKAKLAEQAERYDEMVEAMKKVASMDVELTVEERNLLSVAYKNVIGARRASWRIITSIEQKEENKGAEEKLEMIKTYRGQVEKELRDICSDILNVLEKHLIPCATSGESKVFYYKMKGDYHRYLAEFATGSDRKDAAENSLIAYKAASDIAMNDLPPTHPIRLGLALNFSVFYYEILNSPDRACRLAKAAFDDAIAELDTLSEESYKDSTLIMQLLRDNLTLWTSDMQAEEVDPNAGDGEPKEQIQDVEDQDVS
Sequence of Ribosomal protein L22 (P50887 whole entry): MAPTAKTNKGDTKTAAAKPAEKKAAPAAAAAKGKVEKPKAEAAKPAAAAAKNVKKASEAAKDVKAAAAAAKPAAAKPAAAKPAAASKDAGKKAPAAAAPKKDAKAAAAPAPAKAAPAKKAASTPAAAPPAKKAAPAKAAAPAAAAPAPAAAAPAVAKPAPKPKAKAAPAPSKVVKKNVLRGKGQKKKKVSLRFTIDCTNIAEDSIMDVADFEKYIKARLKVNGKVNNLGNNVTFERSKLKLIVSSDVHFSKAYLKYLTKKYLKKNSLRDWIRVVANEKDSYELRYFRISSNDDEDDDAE

Consider Apontic (natural protein), for which the percent of reporter signal lost relative to UbxIb Pro4 in experiment [1], in experiment [2] and in experiment [3] was over 59% in each case. Substance “14-3-3ε (from UniProt P92177 1-262) (natural protein)” came in with a percent of reporter signal lost relative to UbxIb Pro4 in experiment [1] of over 59%. “Dishevelled (from UniProt P51140 1-623) (natural protein)”: the percent of reporter signal lost relative to UbxIb Pro4 in experiment [1] is over 59%. With “Ribosomal protein L22 (from UniProt P50887 1-299) (natural protein)”, the percent of reporter signal lost relative to UbxIb Pro4 in experiment [1] was over 59%.
